Measured values from paper PMC5125287 (Annals of Medicine, 2016).

Biological target: Recombinant carrier-free human βNGF (human, UniProt P01138 122-241)
Assay: SPR; BIACORE; PDPN/Fc amine-coupled to a CM5 chip (6000 to 8000 RU); analyte injected at 5 μl/min; NGF at 1 μM; 20 °C; HBS-P (0.01 M Hepes pH 7.4/0.15 M NaCl/0.005% Surfactant P20); reference channel subtracted; regeneration with 1% heparin in PBS; 1:1 Langmuir fit, KD estimated by the steady-state affinity model
Conditions: both partners purified

Chain of Recombinant carrier-free human βNGF (P01138 122-241): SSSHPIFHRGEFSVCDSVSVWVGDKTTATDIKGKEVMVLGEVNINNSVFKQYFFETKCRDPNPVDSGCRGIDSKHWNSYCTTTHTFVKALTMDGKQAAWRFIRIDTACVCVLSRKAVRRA

B1: Human podoplanin extracellular domain/Fc chimera (Fc fusion, UniProt Q86YL7 23-131, looked up)
chain: ASTGQPEDDTETTGLEGGVAMPGAEDDVVTPGTSEDRYKSGLTTLVATSVNSVTGIRIEDLPTSESTVHAQEQSPSATASNVATSHSTEKVDGDTQTTVEKDGLSTVTL
- Kd: ~100 nM
